Results taken from US20140245492.

Target: ubiquitin

B1: MBP-AtAIRP2 (fusion of maltose-binding protein and Arabidopsis thaliana ABA Insensitive Ring Protein 2) (protein)
chain: MRKSFKDSLKALEADIQFANTLASEYPEEYDGGYVQMRLSYSPAAHLFLFLLQWTDCHFAGALGLLRILIYKAYVDGKTTMSLHERKTSIREFYDVLFPSLLQLHGGITDVEERKQKEICDKRYRKKDRTDKGKMSEIDLEREEECGICLEIRNKVVLPTCNHSMCINCYRNWRARSQSCPFCRGSLKRVNSGDLWIYTCSAEIADLPAIYKENLKRLLIYIDKLPLVTSDPNLVPYAPLPR
Self-Ubiquitination (in vitro, with UBA1, UBC8 and ubiquitin, 30° C. for 1 hour; Western blot using MBP- and ubiquitin-specific antibodies): the molecular weight of the AtAIRP2 protein was increased through Western blot using anti-MBP antibody, and the increase was induced due to ubiquitin
